Experimental findings from PMC3790952 (Chembiochem, 2013) are described below.

Substrate in the series “purified protein”: CC(C)=CCC/C(C)=C/CC/C(C)=C/CC/C(C)=C/COP(=O)(O)OP(=O)(O)O
The series can be described thus: purified protein. As to conditions: 10 mM MgCl2, 30 °C, GGDP 10-200 μM. Format: biochemical, Streptomyces sp.

The series “SEC” deals with the molecule itself. The series can be described thus: SEC.

B1: DtcycB (enzyme, Streptomyces sp. SANK 60404, UniProt M1VDX3 1-343, looked up)
chain: MDLPPALLSFYCPIASEVSPEHEAVAQEMYAWIHAMSLTSDNRQAKMLAQAGAGFNSYFTPRARGELARALSKYNVCAWIANGMVQEIRDPGTFGAMAARWARIMEEPATCPADGIPMDFALADAFSHIRRTLSPVKWQHFSAAQSHWMHGLAWENCLHQVKGLTVHDYLSFRYVMSGCFAAAAFAYAVPERHPSAEEWAHPKVRAAADAAMMVDALDNDRYSYLKESLTEADKKTIFAALRHENPALGREEVIVRGVQLRDRILTLYLTLRGELLCDASEGLRSYLTGLDLIIAGNLVFCADMGLRYGLPEGSVRTDAEPLDRTVAPPGIGAIDHWWAQAGA
As a reminder, the Km is the substrate concentration at which the rate is half of its maximum. A word on the kcat: it is the maximal rate divided by the concentration of active sites. In general, stoichiometry N refers to a count of units in the complex or per binding partner. As to B1, in “purified protein”, the Km was determined as 42.1 ± 7.3 µM and the kcat came out at 0.0217 s⁻¹. For the same protein, in “SEC”, the “stoichiometry N” value stood at 2.

B2: DtcycA (enzyme, Streptomyces sp. SANK 60404, UniProt M1V9Q0 1-371, looked up)
chain: MTDPAVTPLAFSIPQLYCPFPTAIHPEVDTLTRAGMDFMTHHGFCNTEADRLVVANIDAGAIVARWYPNPDFPVDRLQMVTDFLYLYFLIDDLRFEVINSDTGLAGPIALFAQHLDLWEYPQAHRREELDLFHQAIHDLASRMAELTTPTKAARMRRSINGWFLALLREIALFNDDHAVMAEEYLPIRVVTVASRLMIDVNGFICPAEVPGDEWYSLKVQAAAEAAMSVCLYDNELYSAGKEQWLKSRATAHDRRPRNLVALIQAQTGGSTEHALQEVAEYRNRTVCLYLNLRSQLEKTASPALLAYLSVLDGVISGNLDAHATSSRYHNPDGHHPHAIAFTPLRTTDECSARAHTPIAPPIAWWWEQLDQ
With B2, in the series “purified protein”, the Km is 93.7 ± 8.4 µM and the kcat is 0.0467 s⁻¹. In “SEC”, the “stoichiometry N” value was 2.
